Results: the nanobody polyreactivity screen of Harvey et al. (2022)

Experiment: yeast display, Sf9 membrane polyspecificity reagent, FACS + sequencing; frameworks hold sequencing errors
Procedure, shortened: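 In a synthetic yeast display library (Saccharomyces cerevisiae BJ5465), nanobody expression was induced with galactose for 36–48 hours. FACS gates were set low and high (top ~1%) using anti-HA fluorescence for expression and streptavidin fluorescence for binding of the Sf9 membrane reagent. Each polyreactivity label is drawn from the gate of origin.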

Sequence	polyreactivity (PSR sort gate)
QVQLVESGGGLVQAGGSLSLSCAASGSILQLYAMGWYRQAPGTERELVAAITESAGSKSYADSVKGRFTISRDNAKITVYLQMNSLKPEDTAVYYCNAEYSAYSGFDVEWSLDYDYWGQGTQVTVSS	low polyreactivity
QVQLVESGGGLVQAGGSLSLSCAASGSISLVYAMGWYRQAPGKERELVAAISASGGRTYYADSVKGRFTISRDNAKNTVYLQMNSLKPEDTAVYYFSKDVKKIEFDYWGQGTQVTVSS	high polyreactivity
QVQLVESGGGLVQAGGSLSLSCAASGSNFKAYAMGWYRQAPGKERELVAAITKSGGRTYYADSVKGRFTISRDNAKNTVYLQMKSLNPEDTAVYSCAAVFRPDSSAYRYYYWGQGTQVTVST	high polyreactivity
QVQLVESGGGLVQAGGSLSLSCAASGSSFGGYTMGWYRQAPGKERELVAAISRRGGNTYYADSVKGRFTISRDNAKNTVYLQMNSLNPEETAVYYCAVRWPSARIPVKLDYWGQGTQVTVSS	high polyreactivity
QVQLVESGGGLVQAGGSLSLSCAASGSTFAYYAMGWSRQAPGKERELVAGITWTGGSTYYADSVKGRFTISRDNAKNTVYLQMNSLKPEDTAVYYCAVTYPYGYEYDHWGQGSQVTVSS	low polyreactivity
QVQLVESGGGLVQAGGSLSLSCAASGSTFAYYAMGWYRQAPGKERELVAGITWTGGSTYYADSVKGRFTISRDNAKHTDYLQMNSLKPEDTAVYYCAVTYPYGYEYDHWGQGSQVTVSS	low polyreactivity
QVQLVESGGGLVQAGGSLSLSCAASGSTFYENAMGWYRQAPGKERELVAAITWSGGRTYYADSVKGRFTISRDNAKNTVYLQMNSLKPEDTAVYYCNARARSRKFYYWGQGTQVTVSS	high polyreactivity
QVQLVESGGGLVQAGGSLSLSCAASGSTFYRYAKGWYRQAPGKERELVAAISTRGGSTYYADSVKGRFTISRDNAKNTVYLQMNSLKPEDTAVYYCAAKSGSPDDYDYWGHGTQVTVSS	high polyreactivity
QVQLVESGGGLVQAGGSLSLSCAASGSTLRYYDMGWYRQAPGKERELVAAISRGGSTYYADSVKGRFTISRDNAKNTVYLQMNSLKPEDTAVYYCNKEYPSSYEYDYWGQGTQVTVSS	low polyreactivity
QVQLVESGGGLVQAGGSLSLSCAASGSTYFYAMGWYRQAPGKERELVAAISFSDGITYYADSVKGRFTISRDNAKNTVYLQMNSLKPEDTAVYYCAADYISLREEDYWGQGTQVTVSS	high polyreactivity
QVQLVESGGGLVQAGGSLSLSCAATGSIFGGNAMGWKRQAPGKERELVATITDRGSSTYYADSVKGRFTISRDNAKNTVYLRMHSLNPDDTAVYYCANAFPDVPEHDYGGQGTQVTVSS	low polyreactivity
QVQLVESGGGLVQAGGSLSLSCAATGTNFCHNAMGWYRPAPWKERELGAGITSVGSTYFAYSVKGRFTISRDNAKNTVYLQMNSLKPEDTAVYYSAKGYDFRRSYEYWGQGTQVNVSS	low polyreactivity
QVQLVESGGGLVQAGGSLSLSCASSGSTLTYYAMGWYRQEPGKEREFVAAIRWSSGNTYYADSVKGRFTISRDNAKNTVYLQMNSLKPEDTAVYYCAKERRYTGRRSYEYDYWGQGTQVTVSS	low polyreactivity
QVQLVESGGGLVQAGGSLSLSFAASGRTFARYAMGWYRQAPGKEREFVAGINWSGGGTYYADSVKGRFTISRDNAKNTVYLQMNSLKTEDTAVYYCAAVPTNRYGYWGQGTQVTVSS	high polyreactivity
QVQLVESGGGLVQAGGSLTLSCAASGSTFDYNVMGWYRQAPGKERELVAAISNAGTTNYADSVKGRFTISRDNAKNTVYLLMNSLKPEDTAVYYCAADLGYYAAVTKYAEYDYWGQGTQVTVSS	low polyreactivity
QVQLVESGGGLVQAGGSPRLSCAASGRIFGAYAMGWYRQAPGQERELVAGNRSVGSTNYADSVKGRFTISRDNAKNTVYFQMNSLKPEDTAVYYCAARLWHLSYAGQGGDYWGQGTQVTVSS	low polyreactivity
QVQLVESGGGLVQAGGSRRISCAASGITFKWYAMGWYRQAPGKERELVAAISWSTGSTYYADSVKGRFTISRDNAKNTVYLQMNSLKPEDTAVSDCAADLQLPNLGDSYDYWGQGTQVTVSS	high polyreactivity
QVQLVESGGGLVQAGGSRRLICAASGRIYYYMGWYRQEPGQERELVAASTSSGVSTYYADSVKGRFTISRDNAKNTVDLQMNSLKPEDTAVYYCAAERVYIFWFTHEIFKYWGQGTQVTVSS	high polyreactivity
QVQLVESGGGLVQAGGSRRLRCAASGRIFKNYAMGWYRQAPGKERELVAAMTWSVGSTYYADSVKGRFTISRDNAKKTVYLQMNSLKPEDTAVNYCAARRSGTYRYRYEYWGQGSQVTVSS	low polyreactivity
QVQLVESGGGLVQAGGSRRLSCAASGFTFYWYAMGWYRQAPGKERELVAAITRGGRTYYADSVKGRFTISRDNAKNTVYLQMNSLKPEDTAVYYCNAVEFTIAWCYTMDYWGQGIQVTVSS	high polyreactivity
QVQLVESGGGLVQAGGSRRLSCAASGGTFYYYAMGWYRQAPGKERELVAAIRGSGGSTYYADSVKGRFPISRDNAKNTVYLQMNSLKPVDTAVYYCATRGGYPKGYGYLAFNYWGQGTQVTVSS	high polyreactivity
